Measured values as given in IntAct's records for PubMed 20023629.

Target: mcl1_human MCL1 (UniProt Q07820)
Sequence (Q07820 whole entry): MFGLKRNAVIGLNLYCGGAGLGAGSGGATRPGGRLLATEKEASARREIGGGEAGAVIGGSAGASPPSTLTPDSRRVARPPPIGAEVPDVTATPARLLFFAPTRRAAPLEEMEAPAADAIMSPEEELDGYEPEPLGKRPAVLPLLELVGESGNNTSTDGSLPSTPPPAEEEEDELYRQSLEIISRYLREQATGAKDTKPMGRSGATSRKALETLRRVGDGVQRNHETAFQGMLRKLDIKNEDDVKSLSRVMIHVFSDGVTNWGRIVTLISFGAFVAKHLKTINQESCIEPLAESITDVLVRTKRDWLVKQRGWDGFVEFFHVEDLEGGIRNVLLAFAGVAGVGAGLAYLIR

effect of a mutation on the interaction: disrupting interaction
Substance: Ubiquitin carboxyl-terminal hydrolase 9X (Homo sapiens), Q93008 C1566S
